Substrate: C=CCc1cc(OC)c(O)c(OC)c1
Test: purified protein
Type: biochemical, Rhodococcus jostii
Conditions: Tris-HCl 50 mM, pH 7.5, 25 °C, O2 as co-substrate

B1: Eugenol oxidase (EUGO) (Rhodococcus jostii RHA1) (protein)
chain: MTRTLPPGVSDERFDAALQRFRDVVGDKWVLSTADELEAFRDPYPVGAAEANLPSAVVSPESTEQVQDIVRIANEYGIPLSPVSTGKNNGYGGAAPRLSGSVIVKTGERMNRILEVNEKYGYALLEPGVTYFDLYEYLQSHDSGLMLDCPDLGWGSVVGNTLDRGVGYTPYGDHFMWQTGLEVVLPQGEVMRTGMGALPGSDAWQLFPYGFGPFPDGMFTQSNLGIVTKMGIALMQRPPASQSFLITFDKEEDLEQIVDIMLPLRINMAPLQNVPVLRNIFMDAAAVSKRTEWFDGDGPMPAEAIERMKKDLDLGFWNFYGTLYGPPPLIEMYYGMIKEAFGKIPGARFFTHEERDDRGGHVLQDRHKINNGIPSLDELQLLDWVPNGGHIGFSPVSAPDGREAMKQFEMVRNRANEYNKDYAAQFIIGLREMHHVCLFIYDTAIPEAREEILQMTKVLVREAAEAGYGEYRTHNALMDDVMATFNWGDGALLKFHEKIKDALDPNGIIAPGKSGIWSQRFRGQNL
notes: homodimer
B1 was tested, and the Km was 0.8 µM and the kcat was 0.49 s⁻¹.

From paper PMC5089669, “Biocatalytic Properties and Structural Analysis of Eugenol Oxidase from Rhodococcus jostii RHA1: A Versatile Oxidative Biocatalyst” (Chembiochem, 2016)
